Experimental data as given in patent US20190046652A1.

Key:
protein (GFP & Nanobody) = test: fluorescence titration, curve fitting
Peptide (C4 and C2) = test: fluorescence titration, curve fitting

Kd (protein (GFP & Nanobody)): 1000 nM | Kd (Peptide (C4 and C2)): 10 to 20 nM
B1: VEPEP-3a (peptide)
peptide: XKWFERWFREWPRKRR
HELM: PEPTIDE1{[ac].[bAla].K.W.F.E.R.W.F.R.E.W.P.R.K.R.R.[SCCN[*:1]]}$$$$V2.0
SMILES: CC(=O)NCCC(=O)N[C@@H](CCCCN)C(=O)N[C@@H](Cc1c[nH]c2ccccc12)C(=O)N[C@@H](Cc1ccccc1)C(=O)N[C@@H](CCC(=O)O)C(=O)N[C@@H](CCCNC(=N)N)C(=O)N[C@@H](Cc1c[nH]c2ccccc12)C(=O)N[C@@H](Cc1ccccc1)C(=O)N[C@@H](CCCNC(=N)N)C(=O)N[C@@H](CCC(=O)O)C(=O)N[C@@H](Cc1c[nH]c2ccccc12)C(=O)N1CCC[C@H]1C(=O)N[C@@H](CCCNC(=N)N)C(=O)N[C@@H](CCCCN)C(=O)N[C@@H](CCCNC(=N)N)C(=O)N[C@@H](CCCNC(=N)N)C(=O)NCCS
